Experimental data from patent US20250064979A1.

Target: Gag-P3-pol (P3 coiled-coil peptide fused to MMLV Gag-pol) (Moloney murine leukemia virus) (UniProt P03332)
Assay: cell-based or functional assay

Q: Which editing efficiency of PE VLPs does the source give for “Gag-PE fusion with P4 peptide fused to its C-terminus (construct 1 of FIG. 44A) (from UniProt P03332 1-538)” here?
A: 2 fold
